The results in this text go back to a protein production outcome set (Wang et al. 2014).

The series can be described thus: label from the status in PepcDB records.
For the sequence “TIDLNYQNKVESILKQYYGSELSSGRASFSEGMYAVAIEPSTGKVLAMAGLKNDHGNLVDDSLGTIAKNFTPGSVVKGATLSSGWENKVLRGNEVLYDQEIANIRSWFTRGLTPISAAQALEYSSNTYMVQVALRLMGQDYNTGDALTDRGYQEAMAKLRKTYGEYGLGVSTGLDLPESEGYVPGKYSLGTTLMESFGQYDAYTPMQLGQYISTIANNGNRLAPHVVSDIYEGNDSNKFAQLVRSITPKTLNKIAISDQELAIIQEGFYNVVNSGSGYATGTSMRGNVTTISGKTGTAETFAKNVNGQTVSTYNLNAIAYDTNRKIAVAVMYPHVTTDTTKSHQLVARDMIDQYISQFTGQ”, the protein production result was “failed”. As for “MRHFRVFLRKPKRITSAAQPLETGSSGLHFSAVNPRQAPASFFPSLRRFTVRLTAARQDQLVSYFFTCFKGVSMSQSVMKKSVLRILPGLLCLALPLSSCSSSKSPKATMTATPVELRYREATEKIAKRKYNDAIVILESLMFSTRATALEDDVLKALADSYYKKKEYILAADTYRRLLQQTPDSPYARDAQFMLAKSYEKLSPFHELDQEYTVKAINEFETYLDQYPSDDSAQAANDLELYKNLMKVNPDNASYREKYEAAKEELASGSPARYSQKAISELRERLAHNRFSIARQYFKLKKYRAAEIFYDVVINQYPDTKWLESAWIGKIDSEIKQNNWFEARQSIETFQQLYPDKAKLIEPAAKRVTAHYSNKRDPKSKE”, the entry is “failed”; as for “MSLFGRLLSLLLAFVPLSICAAVNHLPVVGEDYVEIPDGRPFAPLAGKIEVVEIFGYTCPHCAHFDSKLQAWGARQAKDVRFTLVPAVFGGVWDPFARAYLAADVLGVAKRSHAAMFEAIHEKGSVPIQNVGPDELAVFYAGYGVQPDRFVATFNGPEVEKRFQAARAYALKVRPVGTPAIVVDGRYMVTGHDFDDTLRITDYLVSRERAASHGR”, “failed”; as for “MGSSHHHHHHSSGRENLYFQGMKEVEKNEIKRLSDRLDAIRHQQADLSLVEAADKYAELEKEKATLEAEIARLREVHSQKLSKEAQKLMKMPFQRAITKKEQADMGKLKKSVRGLVVVHPMTALGREMGLEEMTGFSKTTF”, “not failed”. Next, “ADPFASITHLVDSAMVNKTDSIDREKTSDEPKPIEADESFDDFIYNFASDDALQRQRVVFPLPYYNGERASKIDRKYWKHDDLFAKQSYYTLLFDREEDMDLVGDTSLTSVQVEWIFVKKRMVKKYYFERIKGAWMLEAINLRPIEENENEDFVEFFGHFATDSIFQSRRIRQPLVFVTTDPDDDFSILETTLDLNQWFAFKPALPADKLSNINYGQQNDDNASHKILALKGIGNGFSNILYFQRKDSGWELYKFEDTSI”: “not failed”; “MICRTIVEGTTKISVPVPPPDANFPPSAAPVFYNPEMELNRDINVAATAAFVERLLSKKDILREEIRYVDAFSASGIRGLRIAGEVGIHSTMNDWSHEAFELIKENIKINGLEEKAQATRRNANVLLHEQRFHIVDVDPFGTPSPYLDAAASSAYSMLSVTATDTAPLCGAHLNSGIRKYASVPLNTEYHSEMGLRVLLGACARELAKHEKGMLPLLSHVTRHYVRTYLEVLPGSRKADKTLKSMGFVAHCPRCGFRKPVYGLAVHIEKECPECGGLTKIAGPLWLGPYREPEFCNEVISELEAHPLNTKEKVRKIITFCRDELDIPMFYDQHVICKELGASATGIESLIEALRAGGFEASRTHFTGTSFKTDAPIAEIKKIILALSG”: “failed”. “MVRISNMQFEVIENVKDGWNEEAFVERYSDVLNKYDYIVGDWGYNQLRLRGFFDDQNKKSTYDKKISTLQDYLYEYCNFGCAYFVVKRVKTESLEHHHHHH”: the protein production entry was “failed”. Next, “MKVLDSRDFAKVKAIAIERASYRNIGALAVYIGSMTGMRISEVLALTWPDIDTKLCVIHVTRSWDHLYGTGFKPTKTDSSVRDIEISPSVIELLNKIHQEQAASYLRTGYRDEDQMIMRDPRHNVITDSACNKALHVIQNKAGIPEDKQITFHGLRHSHVSYLISKGVDIYYISKRLGHSDVTITMKVYGHLLDSQRKQEAHKAVLFMDQILEHHHHHH”: “failed”. With “MLGFKDIPLTKKVIHIINDIERPFMIRWSNSHDVQQIHDWLQEEEALEVHGNFLCNWNLTRQCHEEGRLLVLIDEIKGIPVAYQWGQLLSSGILQVRNGWRGNGLGRLVVEHCVELALQQDEMVLQVECKPSSSIPFWEAMGFTIVEGEFGKNAKGFRVLSKNLALPPGGRPILATISSFPEERNWQDNVPAIASYHLNAIVADDGKVYLAERASFPKCFRRMSRDPVIEIIVEGKLVYRDKAKYQGAQDHGVKWCRNGFYIDVVTI”, the protein production entry is “failed”. As to “MSLKISLENVGCASQIGKRKENEDRFDFAQLTDEVLYFAVYDGHGGPAAADFCHTHMEKCIMDLLPKEKNLETLLTLAFLEIDKAFSSHARLSADATLLTSGTTATVALLRDGIELVVASVGDSRAILCRKGKPMKLTIDHTPERKDEKERIKKCGGFVAWNSLGQPHVNGRLAMTRSIGDLDLKTSGVIAEPETKRIKLHHADDSFLVLTTDGINFMVNSQEICDFVNQCHDPNEAAHAVTEQAIQYGTEDNSTAVVVPFGAWGKEGHHHHHH”, the protein production entry is listed as “not failed”.

For the sequence “MSGTLLAFDFGTKSIGVAVGQRITGTARPLPAIKAQDGTPDWNIIERLLKEWQPDEIIVGLPLNMDGTEQPLTARARKFANRIHGRFGVEVKLHDERLSTVEARSGLFEQGGYRALNKGKVDSASAVIILESYFEQGY”, the protein production entry was “not failed”.

Take “MSDNYKFFRHDNCEYFPCHKVKDKETFNCLFCYCPLYFLENCGGNKSDFNGVKDCSNCLIPHSKNGYDYIINKIREVNKEKRAKNNLTLEHHHHHH”: the protein production result was “not failed”. Next, “MEWGISLQTKWSLSEYENPKRYDIENKSLSDFPFLLSWAQKLHIQNEWILDIACGTGRVTIPFIENGYQMIGVDIHEGMLAEAKKKTTDCKKVKWLQQDCLQLSMNEAIPFAFMVGHGFQHFLTNTDQNKLLTSIHHVLAENGIFIFDTRFPSKEELIQPSTEEYWTTISDEKGRECDLYTEMTYDLIQQIQHYITIRKFYDDDALVEELKTTIDLRYTYPQELERLLVANGFELLHIYNDWEGNELGEDCYSMVVVCRKK”: “failed”; “MAGENFATPFHGHVGRGAFSDVYEPAEDTFLLLDALEAAAAELAGVEICLEVGSGSGVVSAFLASMIGPQALYMCTDINPEAAACTLETARCNKVHIQPVITDLVKGLLPRLTEKVDLLVFNPPYVVTPPQEVGSHGIEAAWAGGKNGREVMDRFFPLVPDLLSPKGLFYLVTIKENNPEEILKIMKTKGLQGTTALSRQAGQETLSVLKFTKS”: “failed”; “MEAVVLPWQIFGVRELPVERGVTMKGPRLFRAPGHVPTGLKCHPDQEHMIYPLGCTVLIQAINTKEQNFLQGHGNNVSCLAISRSGEYIASGQVTFMGFKADIILWDYKNRELLARLSLHKGKIEALAFSPNDLYLVSLGGPDDGSVVVWSIAKRDAICGSPAAGLNVGNATNVIFSRCRDEMFMTAGNGTIRVWELDLPNRKIWPTECQTGQLKRIVMSIGVDDDDSFFYLGTTTGDILKMNPRTKLLTDVGPAKDKFSLGVSAIRCLKMGGLLVGSGAGLLVFCKSPGYKPIKKIQLQGGITSITLRGEGHQFLVGTEESHIYRVSFTDFKETLIATCHFDAVKDIVFPFGTAELFATCAKKDIRVWHTSSNRELLRITVPNMTCHGIDFMRDGKSIISAWNDGKIRAFAPETGRLMYVINNAHRIGVTAIATTSDCKRVISGGGEGEVRVWQIGCQTQKLEEALKEHKSSVSCIRVKRNNEECVTASTDGTCIIWDLVRLRRNQMILANTLFQCVCYHPEEFQIITSGTDRKIAYWEVFDGTVIRELEGSLSGSINGMDITQEGVHFVTGGNDHLVKVWDYNEGEVTHVGVGHSGNITRIRISPGNQYIVSVSADGAILRWKYPYTS”: “failed”. Next, “SIQGKVALIAGGAKNLGGLIARDLAAHGARAIAIHYNSPASKADADATVAALQAAGAQAVALQGDLTTAAAVEKLYADALAAVGRPDIAINTVGKVLKKPFSEISEAEYDEMAAVNAKSAFFFLKEAGRHVNDHGKIVTLVTSLLGAFTPFYSAYAGTKAPVEHYTRAAAKEFGARGISVTAVGPGPMDTPFFYGQESPEAVAYHQSAAALSPHSPTGLTHIEDVVPFIRHLVSDGWWITGQTLLINGGY”: “failed”; “MNPMAIISITAFVVALVSGVYIFVKNPESRFNRALLLFSALIAYLSLTDFGLYISESYMMADFWVRMGFLWPIVVPVILHMVLLFTGRRPTMPLLAVIYAPAVVIAALELTTDLITAGPTMTSWGWTFSAAENSLPYQISNIWGFIIASVAIILVALHWRSSRGSDRTQAHYLLTGLILPVLAGVLTDLVLPAAGMAVPSLTDPSAALGVSIIAYGVMRFRLPILSPLNAAMDIVRNMNTFLIITDLGLNIHYVNPATERLTGRRAAEFSGRKVTEVLKFDELSTGSIMESRLRGKDEWIPVIVSAGHVHGSGGEHLGLLFTGSDMRPILEMEEKLRRREDRLVLLTEHMADGLGEFDRDFNFRYLSPSVKKITGYDHEMLTGMSALDFMDYLHPDDTEEVKKLILTRGEGHRATFRIRRPDGNYRWVEYVDRPIRTDGDIEGYVFGLRDIHEHKLAEEALIVSKEKFRELFRNMRSGIIAVESDGKGFRVKSMNPAAERMEGVSCAAIQGMDLQEALPEIWNSPIRRALQEIRETGEAIHCPEVECGEGWFDVHLHQLSTGEVVIICTDITLRKQYEDELRASLREKEALLREVHHRVKNNFQVISSLINLQLDDAEDPAPLRDLQSRIQSMALVHELLYESEDLTSIDMGRYIERLTSSIVNSHHNGEIEVEVAVGDITLPLETAIPLGLIINELVTNSFKHAFTSGGMISVELEEHGGEFTLTITDNGVGLPPDFIIEDSDSLGLRLVAGLVDQIDGTLEVSGEDGTRFRLTFGVVPYRRRV”: “failed”. Consider “MVGLVACSKQSANQQISYRQTAEATLDKGMDNQPEAPYWFPKQLLKWQLSKDKAAKYNTASVPLAKRIDKWQLPTVNKTQDPKMKVVALSIMNSSTSGNAPRGINTFDANVFSNWQYIDQLVYWGGSAGEGLIVPPTADVIDSAHKNGVPVLGTVFFPQVVSGGKLKWLNDFLKQDADGHFPMADKLVAVAKAYGFDGWFINQETDPEVKSFDSASTGKTATSSTSNGLSKKHAQLMQQLIKEYKQKAGSKLDLMWYDSMTKDGKMDWQNALTKENQSYLVDANMKPVADSMFLNFWWTKKRLASQELLKKSHERAEKLGISPYNLFAGIDVQADGTATPVRWNLFANKQHVPYTSLGLYAPDWTHASSDTVDEFQAKEGALWVNDQNDPSRLEHHHHHH”, for which the protein production result is “not failed”. As for “MKVIIIGGETTAYYLARSMLSRKYGVVIINKDRELCEEFAKKLKATIIHGDGSHKEILRDAEVSKNDVVVILTPRDEVNLFIAQLVMKDFGVKRVVSLVNDPGNMEIFKKMGITTVLNLTTLITNTVEALIFPDEFSSIIPLEQGIE”, the entry is “failed”; as for “MSQLPAWPRITRESTAMYHLRVPQTEEELERYYQFRWEMLRKPLHQPKESERDGWDALAHHQIVVDEEGNLVAVGRLYINADNEASIRFMAVHPSVQDKGLGTLMAMTLESVARQEGVKRVTCSAREDAVEFFAKLGFVNQGEITTPTTTPIRHFLMIKPVASLDDILHRGDWCGQLQQAWYEHIPLSEKMGVRIQQYTGQKFITTMPETGNQNPHHTVFAGSLFSLATLTGWGLIWLMLRERHLGGTIILADAHIRYSKPISGKPNAVADLGSLSGDLDRLARGKKARVQLQVELLGGETAGAIFEGIYIVLPAKPFGPYEEGGNEEE”, “failed”. As for “MNGTELRETLEDLIKEVVQASREALDTQGELNERNEAALRTLEAQWRQRLIEELHEQGSLRVVLCRTDLLVPGSGATGTTTTNRTDPLRYVYETLRQRDPRERRRSLPPERSSQSSELEDTGTDSGEALSSGDDDDEISQVAGQPEPETANYVLSQYERVLAPSTNKQRIWRVFLRDAMVHINGQDLLLNQLQCQFDW”, the entry is “not failed”.
